Molecular target: T1, HSPC300 (subunit of the WRC) (human, UniProt Q8WUW1 1-75)
T1 construct: HSPC300, human, full length; source: E. coli, purified within the WRC
T1 sequence (looked up): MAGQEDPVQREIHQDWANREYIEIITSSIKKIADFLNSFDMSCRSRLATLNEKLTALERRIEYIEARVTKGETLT
Experiment: cryo-EM structure; WRC^apo at 1.2 µM in 10 mM HEPES-KOH pH 7.0, 50 mM KCl, 1 mM MgCl2, 1 mM DTT, 5% (v/v) glycerol; 3.0 Å
Details: both partners purified

B1: WAVE1(1-230)-(GGS)6-WCA(485-559) (subunit of the WRC) (domain or fragment, human)
chain: MPLVKRNIDPRHLCHTALPRGIKNELECVTNISLANIIRQLSSLSKYAEDIFGELFNEAHSFSFRVNSLQERVDRLSVSVTQLDPKEEELSLQDITMRKAFRSSTIQDQQLFDRKTLPIPLQETYDVCEQPPPLNILTPYRDDGKEGLKFYTNPSYFFDLWKEKMLQDTEDKRKEKRKQKQKNLDRPHEPEKVPRAPHDRRREWQKLAQGPELAEDDANLLHKHIEVANGGGSGGSGGSGGSGGSGGSKRHPSTLPVISDARSVLLEAIRKGIQLRKVEEQREQEAKHERIENDVATILSRRIAVEYSDSEDDSEFDEVDWLE
notes: WAVE1, human, residues 1-230; (GGS)6 linker, written out from the printed formula; WAVE1, human, WCA, residues 485-559; source: E. coli, purified within the WRC
B1: binds.
